The text below walks through data of US20210290678A1 (published 2021).

One test has as its target T1, murine PTK7 (murine, UniProt Q8BKG3 23-1062).
T1 chain: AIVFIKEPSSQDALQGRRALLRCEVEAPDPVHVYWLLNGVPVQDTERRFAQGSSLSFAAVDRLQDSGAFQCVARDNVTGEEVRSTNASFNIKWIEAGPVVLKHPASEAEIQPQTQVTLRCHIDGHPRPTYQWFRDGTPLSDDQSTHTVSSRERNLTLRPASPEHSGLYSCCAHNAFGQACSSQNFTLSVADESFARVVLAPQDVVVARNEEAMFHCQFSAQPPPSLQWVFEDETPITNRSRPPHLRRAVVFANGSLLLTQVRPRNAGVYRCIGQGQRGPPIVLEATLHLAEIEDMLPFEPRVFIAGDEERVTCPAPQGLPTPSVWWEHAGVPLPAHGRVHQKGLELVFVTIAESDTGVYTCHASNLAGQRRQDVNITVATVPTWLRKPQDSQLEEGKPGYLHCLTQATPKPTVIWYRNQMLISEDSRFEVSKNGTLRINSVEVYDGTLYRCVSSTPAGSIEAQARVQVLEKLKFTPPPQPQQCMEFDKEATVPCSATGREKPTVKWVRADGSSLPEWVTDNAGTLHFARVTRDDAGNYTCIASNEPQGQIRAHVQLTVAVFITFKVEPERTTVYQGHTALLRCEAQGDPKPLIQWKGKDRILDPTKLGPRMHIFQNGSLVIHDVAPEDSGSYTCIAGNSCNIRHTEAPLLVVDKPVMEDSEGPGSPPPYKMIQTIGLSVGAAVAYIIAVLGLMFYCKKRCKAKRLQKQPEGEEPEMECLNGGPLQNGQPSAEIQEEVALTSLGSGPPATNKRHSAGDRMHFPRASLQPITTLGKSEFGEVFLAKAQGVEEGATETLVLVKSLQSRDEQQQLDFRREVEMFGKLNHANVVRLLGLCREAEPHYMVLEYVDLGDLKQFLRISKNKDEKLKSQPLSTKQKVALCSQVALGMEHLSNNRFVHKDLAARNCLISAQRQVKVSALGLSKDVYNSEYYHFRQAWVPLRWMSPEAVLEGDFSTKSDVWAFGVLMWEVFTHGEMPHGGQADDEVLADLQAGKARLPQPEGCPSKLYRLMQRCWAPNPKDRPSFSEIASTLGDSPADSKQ
The test is described as follows: flow cytometry cell binding titration; 3T3L1 murine cells; unit from dose axis.

Test [1] has as its target T2, human protein tyrosine kinase 7 (PTK7) (human, UniProt Q13308 31-1070).
T2 chain: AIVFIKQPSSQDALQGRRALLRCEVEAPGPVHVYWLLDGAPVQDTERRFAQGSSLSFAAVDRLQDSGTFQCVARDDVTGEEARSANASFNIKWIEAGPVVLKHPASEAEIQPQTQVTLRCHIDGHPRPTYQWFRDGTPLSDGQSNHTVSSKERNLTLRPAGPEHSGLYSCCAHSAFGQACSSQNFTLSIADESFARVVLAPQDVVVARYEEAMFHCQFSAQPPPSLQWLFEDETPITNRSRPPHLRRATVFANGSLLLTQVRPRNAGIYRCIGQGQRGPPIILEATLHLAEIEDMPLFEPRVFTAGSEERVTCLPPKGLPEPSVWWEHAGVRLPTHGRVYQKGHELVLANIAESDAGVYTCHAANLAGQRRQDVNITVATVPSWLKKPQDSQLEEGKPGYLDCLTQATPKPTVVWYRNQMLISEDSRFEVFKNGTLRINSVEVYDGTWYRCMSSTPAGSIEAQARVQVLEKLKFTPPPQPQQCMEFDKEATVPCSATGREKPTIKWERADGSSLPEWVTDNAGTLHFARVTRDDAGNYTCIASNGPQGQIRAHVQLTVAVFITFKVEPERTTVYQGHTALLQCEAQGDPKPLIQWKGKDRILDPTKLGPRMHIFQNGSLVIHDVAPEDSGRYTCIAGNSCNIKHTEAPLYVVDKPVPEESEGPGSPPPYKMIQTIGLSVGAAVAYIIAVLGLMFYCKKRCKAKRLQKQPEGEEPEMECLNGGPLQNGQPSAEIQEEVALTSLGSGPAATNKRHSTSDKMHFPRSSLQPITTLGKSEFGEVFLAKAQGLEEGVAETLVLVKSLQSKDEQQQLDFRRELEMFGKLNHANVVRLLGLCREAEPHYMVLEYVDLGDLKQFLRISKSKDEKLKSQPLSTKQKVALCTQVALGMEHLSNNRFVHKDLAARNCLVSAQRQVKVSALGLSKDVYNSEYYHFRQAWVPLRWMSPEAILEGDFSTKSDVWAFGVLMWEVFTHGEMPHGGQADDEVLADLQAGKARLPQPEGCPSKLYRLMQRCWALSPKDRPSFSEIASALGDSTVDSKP
Nature of the test: flow cytometry cell binding titration; HCC70 human cells; unit from dose axis. A general note: In flow cytometry, cells or beads pass a laser one at a time.

B1: CTX181 mAb (custom recombinant monoclonal anti-PTK7 antibody, Creative Biolabs) (antibody, V domains shown)
VH: QVQLVESGGGVVQPGRSLRLSCAASGFTFSSYGMHWVRQAPGKGLEWVAVIWDDGSNKYYVDSVKGRFTISRDNSKNTLYLQMNSLRAEDTAVYYCARDDYYGSGSFNSYYGTDVWGQGTTVTVSS
VL: EIVLTQSPATLSLSPGERATLSCRASQSVSIYLAWYQQKPGQAPRLLIYDASNRATGIPARFSGSGSGTDFTLTISSLEPEDFAVYYCQQRSNWPPFTFGPGTKVDIKR
Consider B1, for which the Kd (usually the free concentration of one partner at which half of the binding sites on the other are occupied at equilibrium, for simple one-to-one binding) with murine PTK7 was determined as 0.662 nM; in test [1] it was 1.53 nM.
